Residue numbers refer to the chain shown, from its start.
T1: recombinant human BCMA Fc fusion protein (Acrobiosystems BC7-H5254 / BCA-H5254) (human, UniProt Q02223 1-54)
T1 construct: also called recombinant BCMA-Fc protein; not shown: Fc of the bought fusion protein, not described
T1 sequence (looked up): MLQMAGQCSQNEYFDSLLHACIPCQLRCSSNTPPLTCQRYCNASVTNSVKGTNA

B1: Anti-CD3-C1-UCP01-G12 IgG1LALA (antibody, V domains shown)
VH: QVQLVQSGAKVKKPGSSVKVSCKASGGKFSRYAISWVRQAPGQGLEWMGGISPHIGHPEYAQKFQGRVTITADESTSTAYMELSSLRSEDTAVYYCARYGYSLYMDIWGQGTLVTVSS
VL: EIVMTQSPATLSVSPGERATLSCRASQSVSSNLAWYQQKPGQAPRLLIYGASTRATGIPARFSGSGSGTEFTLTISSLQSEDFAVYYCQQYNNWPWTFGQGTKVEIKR
notes: IgG1 LALA
B2: Anti-CD3-C1-UCP01-H10 IgG1LALA (antibody, V domains shown)
VH: B1 VH with K10E, H54L, I55V, H57Y, E59Q
VL: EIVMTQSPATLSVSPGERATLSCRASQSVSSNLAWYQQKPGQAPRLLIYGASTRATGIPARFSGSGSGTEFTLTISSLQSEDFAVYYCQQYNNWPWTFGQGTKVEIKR
notes: IgG1 LALA; also called anti-CD3-C1-H10
B3: Anti-CD3-C1-UCP02-E1 IgG1LALA (antibody, V domains shown)
VH: B1 VH with K10E, H54F, I55K, H57Y, P58A
VL: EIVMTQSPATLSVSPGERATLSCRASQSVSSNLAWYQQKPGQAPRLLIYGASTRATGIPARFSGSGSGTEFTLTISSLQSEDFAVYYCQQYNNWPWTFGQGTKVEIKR
notes: IgG1 LALA
B4: Anti-CD3-C1-UCP01-B9 IgG1LALA (antibody, V domains shown)
VH: QVQLVQSGAEVKKPGSSVKVSCKASGGKFSRYAISWVRQAPGQGLEWMGGINAPVVRSPEYAQKFQGRVTITADESTSTAYMELSSLRSEDTAVYYCARYGYSLYMDIWGQGTLVTVSS
VL: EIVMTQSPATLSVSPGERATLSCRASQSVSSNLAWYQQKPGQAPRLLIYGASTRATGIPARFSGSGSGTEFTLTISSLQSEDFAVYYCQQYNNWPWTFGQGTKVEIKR
notes: IgG1 LALA
B5: Anti-CD3-C1-UCP01-E6 IgG1LALA (antibody, V domains shown)
VH: B4 VH with N52T, A53P, V55H, R57G, S58I, P59A, E60D
VL: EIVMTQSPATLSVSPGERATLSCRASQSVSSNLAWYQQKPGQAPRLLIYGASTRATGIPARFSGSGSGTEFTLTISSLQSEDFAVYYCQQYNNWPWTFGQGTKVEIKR
notes: IgG1 LALA
B6: Anti-BCMA-D3-MP05-C1a FAB (Fab, V domains shown)
VH: EVQLVESGGGLIQPGGSLRLSCAASGFIFSHYEMNWVRQAPGKGLEWVSAIGQGGNTVYADSVKGRFTISRDNSKNTLYLQMNSLRAEDTAVYYCARVPYSYMGYAGADIWGQGTLVTVSS
VL: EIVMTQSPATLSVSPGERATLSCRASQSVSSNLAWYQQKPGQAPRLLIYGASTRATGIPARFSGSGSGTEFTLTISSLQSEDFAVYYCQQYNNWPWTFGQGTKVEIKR
notes: Fab
B7: Anti-BCMA-D3-MP05-C1b FAB (Fab, V domains shown)
VH: B6 VH with M103I
VL: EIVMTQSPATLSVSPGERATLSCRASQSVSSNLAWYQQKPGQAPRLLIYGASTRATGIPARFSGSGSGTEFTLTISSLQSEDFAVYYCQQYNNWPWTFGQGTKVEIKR
notes: Fab
B8: Anti-BCMA-D3-MP04-B11d FAB (Fab, V domains shown)
VH: B6 VH with G54V, G55A, N56A, T57E, M103S, A106S
VL: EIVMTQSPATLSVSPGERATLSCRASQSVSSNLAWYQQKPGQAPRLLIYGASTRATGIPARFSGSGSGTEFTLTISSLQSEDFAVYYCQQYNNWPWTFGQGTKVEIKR
notes: Fab
B9: Anti-BCMA-D3-MP05-A9 FAB (Fab, V domains shown)
VH: B6 VH with M103A, A106S
VL: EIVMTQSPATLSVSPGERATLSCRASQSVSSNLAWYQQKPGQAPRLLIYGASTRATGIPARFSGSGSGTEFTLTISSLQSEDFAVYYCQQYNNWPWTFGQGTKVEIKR
notes: Fab
B10: Anti-CD38-E2-UCP01-A10 FAB (Fab, V domains shown)
VH: QVQLVQSGAEVKKPGSSVKVSCKASGLPDATYAIGWVRQAPGQGLEWMGRIIPVFGSAHYAQKFQGRVTITADESTSTAYMELSSLRSEDTAVYYCARGLGYYLYSSYYFDIWGQGTLVTVSS
VL: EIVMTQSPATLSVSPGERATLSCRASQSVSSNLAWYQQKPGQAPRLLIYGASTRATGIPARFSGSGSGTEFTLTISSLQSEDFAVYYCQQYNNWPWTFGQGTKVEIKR
notes: Fab
B11: Anti-CD38-E2-UCP02-A5 FAB (Fab, V domains shown)
VH: B10 VH with L27G, P28S, D29F, A30S, T31N, V54D, F55L, S57A
VL: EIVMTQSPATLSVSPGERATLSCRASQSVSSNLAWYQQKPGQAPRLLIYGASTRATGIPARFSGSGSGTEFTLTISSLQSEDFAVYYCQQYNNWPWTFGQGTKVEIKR
notes: Fab; also called anti-CD38-E2-A5; E2-A5
B12: Anti-CD38-E2-UCP02-D6 FAB (Fab, V domains shown)
VH: B10 VH with L27G, P28S, D29F, A30S, T31N, V54R, F55L, G56D, S57A, A58E
VL: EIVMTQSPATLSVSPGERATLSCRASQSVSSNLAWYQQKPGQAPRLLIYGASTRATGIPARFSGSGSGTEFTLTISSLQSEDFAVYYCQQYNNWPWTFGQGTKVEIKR
notes: Fab
B13: Anti-CD38-E2-UCP02-E7 FAB (Fab, V domains shown)
VH: B10 VH with L27G, P28S, D29F, A30S, T31N, V54A, F55L, G56A, S57A, A58T
VL: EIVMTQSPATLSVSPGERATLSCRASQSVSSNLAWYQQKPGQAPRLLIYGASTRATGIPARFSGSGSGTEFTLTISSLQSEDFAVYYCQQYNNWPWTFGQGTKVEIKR
notes: Fab
B14: Anti-CD38-E2-UCP02-F3 FAB (Fab, V domains shown)
VH: B10 VH with L27G, P28S, D29F, A30S, T31N, F55L, G56D, S57A
VL: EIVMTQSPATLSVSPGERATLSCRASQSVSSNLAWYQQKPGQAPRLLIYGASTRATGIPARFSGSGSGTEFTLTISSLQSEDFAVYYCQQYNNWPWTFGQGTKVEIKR
notes: Fab
B15: Anti-CD38-E2-UCP02-F8 FAB (Fab, V domains shown)
VH: B10 VH with L27G, P28S, D29F, A30S, T31N, V54S, F55L, G56D, S57A, A58G
VL: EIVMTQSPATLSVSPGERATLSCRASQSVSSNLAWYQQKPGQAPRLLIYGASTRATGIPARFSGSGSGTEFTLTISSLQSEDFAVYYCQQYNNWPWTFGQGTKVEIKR
notes: Fab
B16: Anti-CD38-E2-UCP02-G8 FAB (Fab, V domains shown)
VH: B10 VH with L27G, P28S, D29F, A30S, T31N, V54A, F55L, S57G, A58V
VL: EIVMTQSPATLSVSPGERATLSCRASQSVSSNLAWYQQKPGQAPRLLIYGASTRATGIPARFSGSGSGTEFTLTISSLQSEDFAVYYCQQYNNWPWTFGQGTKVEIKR
notes: Fab
B17: Anti-CD38-B3-PP11-A2 FAB (Fab, V domains shown)
VH: QVQLVQSGAEVKKPGSSVKVSCKASGQTTPMYSISWVRQAPGQGLEWMGRIIPTGANANYAQKFQGRVTITADESTSTAYMELSSLRSEDTAVYYCARSWPSLGSGWFDIWGQGTLVTVSS
VL: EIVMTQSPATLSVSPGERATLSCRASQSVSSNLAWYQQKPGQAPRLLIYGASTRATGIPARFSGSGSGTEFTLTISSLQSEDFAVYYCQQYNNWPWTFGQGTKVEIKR
notes: Fab
B18: Anti-CD38-B3-PP11-C11 FAB (Fab, V domains shown)
VH: B17 VH with Q27G, T28D, T29F, P30T, M31L, W100T, S102T, L103Y
VL: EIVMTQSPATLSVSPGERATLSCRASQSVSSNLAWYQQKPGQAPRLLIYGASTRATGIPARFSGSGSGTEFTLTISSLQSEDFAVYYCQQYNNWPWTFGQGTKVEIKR
notes: Fab; also called anti-CD38-B3-C11; B3-C11
B19: Anti-CD38-B3-PP11-D1a FAB (Fab, V domains shown)
VH: B17 VH with Q27M, T28Q, P30R, M31W
VL: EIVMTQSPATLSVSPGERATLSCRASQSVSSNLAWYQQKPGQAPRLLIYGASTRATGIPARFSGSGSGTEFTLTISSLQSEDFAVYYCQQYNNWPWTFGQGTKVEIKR
notes: Fab

Target: T2, human CD3 on cells (HPB-ALL cells, primary human T cells) (human, UniProt P07766 23-207)
T2 construct: whole, on cells; only the epsilon chain is written
Assay: flow cytometry, human CD4+ T cells

T2 sequence (P07766 23-207): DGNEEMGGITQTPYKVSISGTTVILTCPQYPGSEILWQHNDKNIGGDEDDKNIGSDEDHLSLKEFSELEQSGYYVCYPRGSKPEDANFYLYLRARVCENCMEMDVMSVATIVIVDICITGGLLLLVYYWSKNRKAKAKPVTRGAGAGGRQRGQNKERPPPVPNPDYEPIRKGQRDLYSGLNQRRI

| Binder | MFI at 800 nM [MFI] |
| --- | --- |
| B1 | 121000 |
| B2 | 151000 |
| B3 | 151000 |
| B4 | 108000 |
| B5 | 231000 |

Target: T1, recombinant human BCMA Fc fusion …
Assay: SPR, Fab as analyte, captured human BCMA-Fc

| Binder | Kd [nM] |
| --- | --- |
| B6 | 1.03 |
| B7 | 2.22 |
| B8 | 5.43 |
| B9 | 2.3 |

Target: T3, Biotinylated Human CD38 Protein, Avitag, His Tag (Acrobiosystems CD8-H82E7) (human, UniProt P28907 43-300, biotinylated)
T3 construct: bought protein; also called biotinylated recombinant human CD38 protein; human CD38-avi-his
Assay: SPR, Fab as analyte, biotin-captured human CD38

| Binder | Kd [nM] |
| --- | --- |
| B10 | 9.4 |
| B11 | 23.6 |
| B12 | 4.9 |
| B13 | 2.2 |
| B14 | 3.5 |
| B15 | 17.6 |
| B16 | 5.2 |
| B17 | 38.4 |
| B18 | 5.4 |
| B19 | 10 |

Target: T4, recombinant cynomolgus monkey BCMA Fc fusion protein (Acrobiosystems BCA-C5253) (cynomolgus monkey, UniProt A0A2K5UD97 1-53)
T4 construct: bought protein; not shown: Fc of the bought fusion protein, not described
Assay: SPR, Fab as analyte, captured cynomolgus BCMA-Fc

T4 sequence (A0A2K5UD97 entry or part of it): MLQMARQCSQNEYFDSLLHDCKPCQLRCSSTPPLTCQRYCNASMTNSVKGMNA

| Binder | Kd [nM] |
| --- | --- |
| B6 | 1.03 |
| B7 | 5.86 |
| B8 | 4.85 |
| B9 | 6.54 |

Target: T5, recombinant cynomolgus monkey CD38-ECD-C-his protein (cynomolgus monkey, UniProt Q5VAN0 45-301)
T5 construct: made in house; Q5VAN0 residues 43-301 (residue 44 deleted) with C-terminal 6-His; also called cynomolgus monkey CD38-C-His; recombinant cynomolgus monkey CD38 protein
Assay: SPR, Fab as analyte, captured cynomolgus CD38-his

| Binder | Kd [nM] |
| --- | --- |
| B10 | 8.6 |
| B11 | 4.4 |
| B12 | 1.1 |
| B13 | 1.8 |
| B14 | 2.4 |
| B15 | 24.5 |
| B16 | 4.2 |
| B17 | 62.5 |
| B18 | 25 |
| B19 | 9.6 |
